Data set [1] addresses Tn5 transposase wild-type (Tnp WT) (UniProt Q46731). Put plainly: cell_activity. The conditions noted are these: mating out.
Data set [2] concerns Tnp A157T plus one A157T. Put plainly: cell_activity. The conditions noted are these: mating out, dam+ strain.
The target of data set [3] is Tnp sC7 R8C,E58V,A157T,T171S,D217A,E344K,L372Q (UniProt Q46731). Put plainly: cell_activity. The conditions noted are these: mating out.
Data set [4] relates to Tnp T171S plus one T171S. Put plainly: cell_activity. The conditions noted are these: mating out, dam+ strain.
Data set [5] concerns sC7 T171S minus one R8C,E58V,A157T,D217A,E344K,L372Q. Put plainly: cell_activity. Particulars: mating out, dam+ strain.
The subject of data set [6] is Tnp sC7(157,217) R8C,E58V,T171S,E344K,L372Q. The experiment in a line: cell_activity. Particulars: mating out, dam+ strain.
The subject of data set [7] is Tnp E58V plus one E58V. Put plainly: cell_activity. Particulars: mating out, dam+ strain.
In data set [8] the test system is sC7 E58V minus one R8C,A157T,T171S,D217A,E344K,L372Q. Put plainly: cell_activity. Particulars: mating out, dam+ strain.
Data set [9] relates to Tnp L372Q plus one L372Q. The experiment in a line: cell_activity. Particulars: mating out, dam+ strain.
Data set [10] concerns sC7 R8C minus one E58V,A157T,T171S,D217A,E344K,L372Q. The experiment in a line: cell_activity. Particulars: mating out, dam+ strain.
Data set [11] concerns Tnp sC7v2.0 (sC7(157,171,217)) R8C,E58V,E344K,L372Q. The experiment in a line: cell_activity. The conditions noted are these: mating out, dam+ strain.
In data set [12] the test system is Tnp sC7(171,217) R8C,E58V,A157T,E344K,L372Q. The experiment in a line: cell_activity. The conditions noted are these: mating out, dam+ strain.
Data set [13] has as its system Tnp sC7(157,171) R8C,E58V,D217A,E344K,L372Q. The experiment in a line: cell_activity. Particulars: mating out, dam+ strain.
Data set [14] concerns sC7 E344K minus one R8C,E58V,A157T,T171S,D217A,L372Q. Put plainly: cell_activity. The conditions noted are these: mating out, dam+ strain.
The subject of data set [15] is Tnp R8C plus one R8C. Put plainly: cell_activity. The conditions noted are these: mating out, dam+ strain.
Data set [16] deals with sC7 A157T minus one R8C,E58V,T171S,D217A,E344K,L372Q. The experiment in a line: cell_activity. Particulars: mating out, dam+ strain.
Data set [17] has as its system sC7 L372Q minus one R8C,E58V,A157T,T171S,D217A,E344K. Put plainly: cell_activity. The conditions noted are these: mating out, dam+ strain.
In data set [18] the test system is Tnp E344K plus one E344K. Put plainly: cell_activity. The conditions noted are these: mating out, dam+ strain.
In data set [19] the test system is sC7 D217A minus one R8C,E58V,A157T,T171S,E344K,L372Q. Put plainly: cell_activity. Particulars: mating out, dam+ strain.
Data set [20] has as its system Tnp D217A plus one D217A. The experiment in a line: cell_activity. The conditions noted are these: mating out, dam+ strain.
Data set [21] concerns Tnp sC7v2.0 purified R8C,E58V,E344K,L372Q. Put plainly: cleavage_in_vitro. The conditions noted are these: dam methylation of adenines in the two GATC sites (four methyl groups per end); in vitro transposition, 3 h, 37C, 280 nM Tnp, 35.5 nM pGT4.
The mark [22] stands for this setting: dam methylation of adenines in the two GATC sites (four methyl groups per end), dam+ strain.
Setting [23] is: dam methylation of adenines in the two GATC sites (four methyl groups per end).

Tn5 outside end (OE): the activity (transposition frequency) in [1] (dam- strain, 3.1e-6 in dam+ strain) came out at 6.5e-05; in data set [2] it was 6.6e-07; in data set [3] (dam- strain, 3.3e-6 in dam+ strain) it was 3.7e-05; in [4] it was 1.8e-06; in data set [5], 2.6e-06; in data set [6] it was 2.25e-05. Also, the activity (transposition frequency) amounted to 1.4e-06 in [7]; 1.1e-06 in data set [8]; 1.1e-05 in data set [9]; 6e-06 in data set [10]; 7.1e-06 in [11]; 1.18e-05 in [12]. The activity (transposition frequency) in data set [13] was 7e-06; in data set [14], 1.7e-05; in [15], 4e-07; in data set [16], 4e-06; in data set [17], 2.8e-07; in data set [18], 6.8e-07. Moreover, the activity (transposition frequency) was 4.5e-06 in data set [19] and 3.4e-06 in [20].
For Tn5 inside end (IE), unmethylated, the results for the activity (transposition frequency) in [1] (dam- strain) and in data set [3] (dam- strain) were 6.5e-05 and 0.0018, respectively.
Consider Dam-methylated Tn5 inside end (IEME), for which the activity (transposition frequency) in [1] (setting [22]) stood at 1e-08; in data set [3] (setting [22]) it was 0.0026; in [4] (setting [23]), 5.6e-09; in data set [5] (setting [23]), 0.0028; in data set [6] (setting [23]), 0.0084; in data set [7] (dam methylation of adenines in the two GATC sites (four methyl groups per end), 40000-fold over WT) it was 0.0004. Moreover, the activity (transposition frequency) in [8] (setting [23]) was 1.8e-06; in data set [9] (dam methylation of adenines in the two GATC sites (four methyl groups per end), 8.9-fold over WT) it was 8.9e-08; in data set [10] (setting [23]) it was 0.0031; in data set [11] (setting [23]), 0.0074; in [12] (setting [23]), 0.0058; in data set [13] (setting [23]), 0.0065. The activity (transposition frequency) in data set [14] (setting [23]) turned out to be 0.00055; in data set [16] (setting [23]), 0.0031; in [17] (setting [23]), 0.00026; in data set [18] (dam methylation of adenines in the two GATC sites (four methyl groups per end), 4.3-fold over WT), 4.3e-08; in data set [19] (setting [23]) it was 0.0037. For the same substance, the activity (% supercoiled plasmid converted) in data set [21] was determined as 66.

Values taken from patent publication US6406896.
